From the supplement of paper PMC10126150 come the findings set out here.

The series has as its system ATP. Nature of the series: switch fluorescence ratio, 500 uM ATP over buffer (Cy3 cluster intensity, sum of 5 cycles each) (fold (ratio)); higher = stronger signal-on switching upon ATP binding; sequences stand for … in TCGTCGGCAGCGTCAGATGTGTATAAGAGACAGTTTTTTTTTTTTTTTTTTTTTTTTT…TC. The following applies: aptamer strand: ATP DNA aptamer (quencher-CACCTGGGGGAGTATTGCGGAGGAAGG + anchor), 100 nM annealed; ATP concentration: 500 uM. The method, boiled down: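 Exposure to 500 uM ATP lasted 15 min at 22 °C before imaging, and a selection-buffer image was taken beforehand, for Cy3-labelled switching-strand clusters on a modified Illumina MiSeq flow-cell annealed to 100 nM quencher-labelled ATP aptamer. Five buffer/ATP cycles were run with NaOH stripping and re-annealing between them. The fluorescence ratio per cluster is summed target-cycle over summed buffer-cycle Cy3 intensity, averaged per switch-domain sequence. Clusters outside 100-1000 RFU were excluded.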

± gives the standard deviation of the averaged measurements.

Turning to ATACTCGGTA, the switch fluorescence ratio is 0.997 ± 0.023.
TTCGTCAATC: the switch fluorescence ratio is 2.17 ± 1.3.
Turning to CTAGGGGGCA, the switch fluorescence ratio was 0.982 ± 0.037.
The value for TTTGAGCATA was 1.06 ± 0.042; that for TCGACATCGG was 1.016 ± 0.0061.
In the case of GATCTCCGGC, the switch fluorescence ratio was determined as 1.63 ± 0.063.
In the case of AGGCCAGGCG, the switch fluorescence ratio is 1.02 ± 0.051.
Consider GCTTGGGGGG, for which the switch fluorescence ratio was found to be 1.02 ± 0.029.
The value for TGAGGGAAGA was 1.05 ± 0.051; that for TCGGGGGATG was 0.987 ± 0.019.
As to ATTCTGACAC, the switch fluorescence ratio was determined as 1.07 ± 0.028.
For ATGCCTGTGT, the switch fluorescence ratio came to 0.977 ± 0.012.
The value for GACACCATTC was 1.13 ± 0.017.
The value for GATCTTGATG was 1.02 ± 0.036.
For ATTACGGCAG, the switch fluorescence ratio was found to be 1.02 ± 0.059.
For the sequence TAATTTGGGA, the switch fluorescence ratio amounted to 0.997 ± 0.013.
Under TTTAATAATG stands 0.988 ± 0.036; under CCACTTGCTA, 1.16 ± 0.037; under GGGGCCCCGT, 1.016 ± 0.0043.
Turning to TGCGGTTGTT, the switch fluorescence ratio worked out at 0.999 ± 0.046.
On to TAAATGTGGG, for which the switch fluorescence ratio is 1 ± 0.069.
With CGGGGGTTTC, the switch fluorescence ratio was 1.02 ± 0.023.
As for CACCTCATAA, the switch fluorescence ratio worked out at 1.06 ± 0.011.
Regarding TTGGGGTTGG, the switch fluorescence ratio was 1.01 ± 0.03.
As for TAGTTTTTGG, the switch fluorescence ratio was 0.994 ± 0.032.
The value for TTTCCTTGCC was 1.19 ± 0.024; that for TTGATTACTT was 1 ± 0.04.
Regarding CGTTAATTTA, the switch fluorescence ratio was 1.01 ± 0.034.
The value for AAATACTTTT was 1.03 ± 0.021; that for AGCATTTTCC was 1.135 ± 0.0063.
In the case of GGTTAATTAA, the switch fluorescence ratio was found to be 1.03 ± 0.019.
Under CGGGCTTGG stands 1.03 ± 0.021.
In the case of TTACCGTCGC, the switch fluorescence ratio was 1.037 ± 0.0027.
In the case of ATAGAGGAGT, the switch fluorescence ratio was found to be 0.998 ± 0.032.
Under TCATGGCGTG stands 0.988 ± 0.011; under GGGCAATGTC, 1.39 ± 0.072; under AAAGGTGTAT, 1.02 ± 0.014.
The value for ACTACGATGG was 1.05 ± 0.018; that for CGTGGAGAGC was 1.06 ± 0.043; that for ACTTGTAATG was 0.989 ± 0.049.
For AACTATGAAC, the switch fluorescence ratio is 1.03 ± 0.029.
For TGTGGTGGGA, the switch fluorescence ratio came to 0.98 ± 0.02.
As for GATCGTATTC, the switch fluorescence ratio came to 1.05 ± 0.088.
For CTGGTTATAG, the switch fluorescence ratio is 0.989 ± 0.028.
For the sequence TTGAGGGTCG, the switch fluorescence ratio was 0.995 ± 0.035.
Take AATGAATGGG: the switch fluorescence ratio came out at 0.981 ± 0.018.
The value for TGTTTGCTTG was 0.993 ± 0.021; that for AGGCCCGTTA was 0.9957 ± 0.0027; that for CAACGGGTTA was 0.998 ± 0.0077.
As to ATAATTGTTC, the switch fluorescence ratio is 0.99 ± 0.031.
Regarding GCTAGTTGTA, the switch fluorescence ratio was found to be 0.9995 ± 0.0074.
Take GCGGTGGATC: the switch fluorescence ratio was determined as 1.04 ± 0.027.
Take CCGCCGGGGG: the switch fluorescence ratio turned out to be 1.09 ± 0.041.
Consider GGGGTTTAAG, for which the switch fluorescence ratio was 0.969 ± 0.025.
GCAGGGATGC: the switch fluorescence ratio is 1 ± 0.057.
For the sequence CGTTTCATTT, the switch fluorescence ratio worked out at 0.995 ± 0.027.
Regarding AGCGAAGGGG, the switch fluorescence ratio came out at 1.01 ± 0.047.
On to ACGCGGTA, for which the switch fluorescence ratio was 1.02 ± 0.058.
For GTTTTATTGA, the switch fluorescence ratio came to 0.986 ± 0.015.
For the sequence CGCGGAGGGA, the switch fluorescence ratio was 1.02 ± 0.0082.
For CTATAGAAGG, the switch fluorescence ratio is 1.02 ± 0.025.
Take TTTGATGAGC: the switch fluorescence ratio was 1.01 ± 0.034.
For the sequence TGGGGTTCTA, the switch fluorescence ratio worked out at 0.992 ± 0.026.
The value for TTGCGTATGC was 1.08 ± 0.11.
AGTATGTAGC: the switch fluorescence ratio is 0.997 ± 0.032.
On to TTGCCGATAC, for which the switch fluorescence ratio was determined as 2.16 ± 0.12.
As to TGGATGAGGG, the switch fluorescence ratio was found to be 0.99 ± 0.03.
With GGTAGGGAAT, the switch fluorescence ratio came out at 0.974 ± 0.029.
For the sequence ATTCTACTTA, the switch fluorescence ratio came out at 1.01 ± 0.018.
For CGGGGTGTGG, the switch fluorescence ratio is 1.01 ± 0.033.
The value for GAAGTCTGGA was 1 ± 0.024; that for AAAGAAACGG was 1.1 ± 0.035; that for TGGTATGGTA was 0.9969 ± 0.0099.
Under GGAATATGC stands 1.13 ± 0.1; under AGTGTTCGTT, 0.959 ± 0.023; under AATAGTATAG, 0.966 ± 0.02.
In the case of CGTGTGTGGC, the switch fluorescence ratio is 1.02 ± 0.0032.
In the case of TCCAAACCCC, the switch fluorescence ratio was determined as 1.12 ± 0.046.
As to ATGCAGTGTG, the switch fluorescence ratio turned out to be 1.02 ± 0.019.
For the sequence CGCTGTGGAA, the switch fluorescence ratio was 1.04 ± 0.044.
With ATCACGTCGG, the switch fluorescence ratio is 1.014 ± 0.0093.
Under CTAGTGATTG stands 0.99358 ± 0.0003; under GTGCTAGCTC, 1.004 ± 0.0034.
Consider TTAGTGGGTT, for which the switch fluorescence ratio worked out at 1.01 ± 0.024.
Regarding GAGCTTGGCA, the switch fluorescence ratio worked out at 0.9859 ± 0.0058.
On to AACAAACCGT, for which the switch fluorescence ratio worked out at 1.1 ± 0.017.
AGAAACAAGG: the switch fluorescence ratio turned out to be 0.979 ± 0.027.
The value for TGTTGATTTT was 1.03 ± 0.043; that for TTCCATGGGA was 0.9894 ± 0.0098.
With TTCCCGATGT, the switch fluorescence ratio came to 1.02 ± 0.0059.
The value for GTCGTTGCCT was 0.99139 ± 0.00027; that for CGTTTTGGCA was 1.02 ± 0.027; that for TTAGCATGAT was 1.14 ± 0.2.
Take GGGTCTACA: the switch fluorescence ratio came to 0.9714 ± 0.0025.
As for GCAGGTTTTG, the switch fluorescence ratio worked out at 0.987 ± 0.04.
The value for TTAAGCGAAT was 1.002 ± 0.0059; that for GGGCGCCAGG was 1.33 ± 0.66.
In the case of ATTATTGTGT, the switch fluorescence ratio was determined as 0.9903 ± 0.0075.
As for ATCGTGTATG, the switch fluorescence ratio was 0.968 ± 0.028.
The value for GGCGCACTAT was 1.22 ± 0.051; that for CACCAGGGCA was 1.54 ± 0.066; that for AGGTTTTTAA was 1.01 ± 0.043.
As to TTCATCTGTT, the switch fluorescence ratio was 0.9711 ± 0.0084.
Regarding ATAGATCTGA, the switch fluorescence ratio came out at 1.03 ± 0.084.
As to TTGGTTCGAC, the switch fluorescence ratio stood at 0.962 ± 0.04.
GGTATAGGAT: the switch fluorescence ratio came to 0.991 ± 0.025.
CGGTTGGCGA: the switch fluorescence ratio was 1.02 ± 0.011.
With GGTTCCATGC, the switch fluorescence ratio was determined as 1.1 ± 0.014.
AGGTTTAGTT: the switch fluorescence ratio was 0.993 ± 0.0065.
Consider AGAGAGACGT, for which the switch fluorescence ratio came out at 0.995 ± 0.029.
Consider TGAGTAAGTA, for which the switch fluorescence ratio worked out at 0.995 ± 0.048.
On to ACTTCCGTTC, for which the switch fluorescence ratio was determined as 1.35 ± 0.017.
Take CTAAAATGAA: the switch fluorescence ratio is 1.03 ± 0.018.
For the sequence TTAAGCCTG, the switch fluorescence ratio came out at 1.012 ± 0.0021.
For the sequence CGGCACAATA, the switch fluorescence ratio is 1.78 ± 0.041.
For AGGAACATAG, the switch fluorescence ratio stood at 1.15 ± 0.2.
For CTGTTATCGC, the switch fluorescence ratio amounted to 1.01 ± 0.042.
Under ATAAGGCCTA stands 0.991 ± 0.038; under GGCAGCCTTT, 1.0169 ± 0.00028; under TCTTGGTCTC, 0.995 ± 0.027.
